Experimental data published in publication PMC4813479, “β-Subunit Binding Is Sufficient for Ligands to Open the Integrin αIIbβ3 Headpiece” (The Journal of Biological Chemistry, 2015).
Where two headings read alike, the source gives them in different places. One block for each binder: values may come before it. Non-standard residues stand in square brackets, D forms with d. No end group written: not given here. *: point of attachment. FITC = O=C1OC2(c3ccc(O)cc3Oc3cc(O)ccc32)c2ccc(NC(=S)*)cc21; Ahx = NCCCCCC(=O)O

What was measured:
[1] = target: six-domain αIIbβ3 headpiece fragment (chymotrypsin-treated, re-purified)
[2] = target: recombinant αIIbβ3 headpiece; assay: fluorescence polarisation; competition: unlabeled peptide against 3 nM FITC-dodecapeptide on 300 nM αIIbβ3 headpiece; I50 converted to KD; 20 mM HEPES, pH 7.5, 150 mM NaCl, 2 mM MnCl2, 0.1 mM CaCl2
[3] = target: recombinant αIIbβ3 headpiece; assay: fluorescence polarisation; saturation: FITC-dodecapeptide probe at 3 nM, increasing concentration of αIIbβ3 headpiece; one-site specific binding fit; background with 10 μM tirofiban subtracted; 20 mM HEPES, pH 7.5, 150 mM NaCl, 2 mM MnCl2, 0.1 mM CaCl2
[4] = target: full-length human αIIbβ3 on CHO K1 cells (human) (UniProt P08514)
[5] = target: recombinant αIIbβ3 headpiece; assay: fluorescence polarisation; competition: unlabeled peptide against 3 nM FITC-dodecapeptide on 300 nM αIIbβ3 headpiece; I50 converted to KD; 20 mM HEPES, pH 7.5, 150 mM NaCl, 2 mM MnCl2, 0.1 mM CaCl2; remark: listed apart in the source

Binder: QAGDV [QAGDV pentapeptide]
Kd [2]: 7.85 µM

Binder: {FITC-Ahx}-HHLGGAKQAGDV [FITC-aminohexanoyl-…]
Kd [3]: 0.64 µM

Binder: AGDV-OMe [AGDV-OCH3 (O-methylated AGDV)]
fold reduction in affinity against AGDV [2]: 7.5 fold

Binder: AGD[dV] [AGD(v) (D-valine in place of L-valine)]
fold decrease in binding affinity against AGDV [2]: 24 fold

Binder: HHLGGAKQAGDV [fibrinogen γC dodecapeptide]
Kd [2]: 1.27 µM
EC50 of LIBS1 epitope exposure on CHO cells expressing αIIbβ3 (flow cytometry, 1 mM Mg2+ and 1 mM Ca2+) [4]: 580 µM

Continued, values first:

Stokes radius of the αIIbβ3 headpiece by size-exclusion chromatography (Superdex 200) with 1 mM peptide (4.78 nm in buffer) [1]: 5.23 nm
Binder: RGDF [RGDF peptide]

Kd [2]: 1 µM
Binder: Ac-AGDV [N-acetylated AGDV]

Kd [2]: 9.03 µM
Binder: AGDV [AGDV tetrapeptide]

fold reduction in affinity against AGDV [5]: 7 fold
fold reduction in affinity against AGDV [2]: 5.6 fold
Binder: AGDV-NH2 [AGDV-NH2 (amidated AGDV)]
